Test: soluble on expression in E. coli; label from the status in PepcDB or PDB records

**Q.** For “MGSDKIHHHHHHMWFRSKPGKSRAAAKGRDVQSTPKASTDVVLERVRLPVDLLQPGMKVVKLDRPWTEVPVLFQGFTLQTEAEARVLRQYCAWVVVEDEAERLAPVLDQIPHLKQRTTEPLQETRTLEQELPRAADTWSRTQQFVEKLIRDIEQNNDLELASARPLIRSCVDSVKTNASAMFWMARIKHRDAYTAEHCLRVAILTVAFARFLGLPEDDLEVAGMCGLLHDIGKLRVPDEILNKPGPLSPQEYEVMRKHTTLGHELLKQDPSLDPIISDVTLHHHERIDGRGYPQQLPEWQISRFARLIAIVDAYDAMTSDRCYRDGMSPADAVRILYKNRAQQFDADMVEAFIRMIGIYPPGSLVELNTGEVALVVSTHPGRKLKPKVEILLDNNKHPVTPRVMDLGSQTTTDGPVREIKAPLPDGAFGISLEGRVKQLMAKTIANHS”, which “soluble on expression in E. coli” value is on record?
**A.** not soluble

**Q.** For “MENSFELMAREWHKNKADRWSLRYREEIIDTFEKDIFPFIGRRPIADIKPMELLETLKRMEKRGALEKMRKVRQRCGEVFRYAIITGRAEYNPAPDLAGALQTHKKQHLPLEHHHHHH”, which “soluble on expression in E. coli” value is on record?
**A.** not soluble

**Q.** With “MMKTLLPFFGVVRVSGEDRQTFLHGQLSNDINNLQTGQACYATYNTPKGRVIANMIVVNRGGDLLLIMAQDLLEATVKRLRMFVLRAKAVFEILEDYAVGAELEASAEPLAAQEPNLAFAAQQDSDGICSIALPHGGILRIAPKNTLPPYDAAAENAWRLHEIRSGYPWICAATKETAVAQMLNQHIIGGVHFKKGCYPGQEIIARAQYRGQVKRGLAVLSGNSAAEAGSVLAADGEEAGIVLDSVQDSENFTALAVIKFSAAQKELTVPNGGIFKAVHLFFKTENAELEHHHHHH” as the sequence, how does the “soluble on expression in E. coli” value read?
**A.** soluble

**Q.** Which “soluble on expression in E. coli” value does the source give for “MPLVVFCGLPYSGKSRRAEELRVALAAEGRAVYVVDDAAVLGAEDPAVYGDSAREKALRGALRASVERRLSRHDVVILDSLNYIKGFRYELYCLARAARTPLCLVYCVRPGGPIAGPQVAGANENPGRNVSVSWRPRAEEDGRAQAAGSSVLRELHTADSVVNGSAQADVPKELEREESGAAESPALVTPDSEKSAKHGSGAFYSPELLEALTLRFEAPDSRNRWDRPLFTLVGLEEPLPLAGIRSALFENRAPPPHQSTQSQPLASGSFLHQLDQVTSQVLAGLMEAQKSAVPGDLLTLPGTTEHLRFTRPLTMAELSRLRRQFISYTKMHPNNENLPQLANMFLQYLSQSLH” here?
**A.** soluble

**Q.** Which “soluble on expression in E. coli” value does the source give for “ICFSKIFNTQYLSDIRYIDLNQNIDTIKSNFKKGLRYNIKKSKNEGCDLKIIENPSSEDIDHFMECYNSMLCRNESSEKYHFSKQFIMDHFKFIKTFLILAYYQKKVVGAGIFFKGETIMHYHLSGTLKLKGIYPNDLILWESIKKSKDLGLKYFFLGGGVIKDDSLFEYKSGFSK” here?
**A.** not soluble

**Q.** Which “soluble on expression in E. coli” value does the source give for “MKRDGHTHTEFCPHGTHDDVEEMILKAIELDFDEYSIVEHAPLSSEFMKNTAGNQEAVTTASMSMSDLPYYFKKMNQMKKKYASDLLIHIGFEVDYLIGYEDFTRDFLNEYGPQTDDGVLSLHFLEGQGGFRSIDFTAEDYNEGIVQFYGGFEQAQLVYLAGVKQSIEADLGAFKPRRIGHISLCQKFQQFFGADGRDFTAEVIAEFEAILALVKKRGYELDFNTAGLFKPLCKETYPPKEIVTLARALEIPFVYGSDSHGVADIGRGYNTYCQKLEHHHHHH” here?
**A.** soluble

**Q.** Which “soluble on expression in E. coli” value does the source give for “GNFGWSSYLTYSLNRNKVVELLRNYEDPYTHELTSLDRIDMGGTSMYKMILTEGGSIGDIYVNTLRTDEHGAIYVHPSDQVVVTQPDEFVKAGNSAPKYNLGWGNTFSYKGLSLGFLFTARVGGVVVSQTQATMDAYGSSKATAIARDNGGAIVNGRPIGAEDYYTKIGGAGAQGGIGSMYTYSATNVRLAELSLGYDIPINKYVDWIKGLNVSFIGKNLFFLYRKAPFDPELTASTGTYFQGIDMFMSPSLRNLGFSVKVNF” here?
**A.** not soluble

**Q.** With “MTSALATGLATITADGTVLDAWFPAPELTAVDTTGTTVLDGDDIPEHLRLLVGEDADRGVRRQAITTTIADLDAAPIDAYDAYLRLHLLSHRLVKPHGQNLDGIFGLLTNVVWTNHGPCEVKNFDITRAKLQARGPVTVYLVDKFPRMVDYVLPSGVRIGDADRVRLGAHLAEGTTVMHEGFVNFNAGTLGNSMVEGRISAGVVVDDGSDVGGGASIMGTLSGGGKQVISLGKRCLLGANSGCGIPLGDDCVIEAGLYVTAGSKIIVRGAVAEATGLNDGDTTKALELAGANNILFRRNSISGAIEATAWKSQAVELNDALHAN” as the sequence, how does the “soluble on expression in E. coli” value read?
**A.** soluble

**Q.** With “MSKSEETLSSIMEASYRLFARHGITKTTYSMIAEEVGIAKPSIYYYFKSKDALIECIFTELCAAMQFSSFFHTEEFTKENFIEKCIEIGFKIIDEQQNDPYFNRVLQEYLLLSSRNDMYKDRLLTVQTEYLQGFESLLTKANELQLIENKNLVSKAHMLALVLDNVGNFMMLHVDIDYRQIWMEAVNIIFERRD” as the sequence, how does the “soluble on expression in E. coli” value read?
**A.** not soluble

**Q.** For “MKTIGLLGGMSWESTIPYYRLINEGIKQRLGGLHSAQMLLHSVDFHEIEECQRRGEWDKTGDILAEAALGLQRAGAEGIVLCTNTMHKVADAIESRCTLPFLHIADATGRAITGAGMTRVALLGTRYTMEQDFYRGRLTEQFSINCLIPEADERAKINQIIFEELCLGQFTEASRAYYAQVIARLAEQGAQGVIFGCTEIGLLVPEERSVLPVFDTAAIHAEDAVAFMLS”, which “soluble on expression in E. coli” value is on record?
**A.** not soluble

**Q.** With “MSLKVVITRPKERADVFASLLKKEGFEPIIFPTLEIVYNKDLDVNLDSYDWIAFTSPSGVIGLYNILTENERENVKNKKIAVIGEKTAKTFKKYFGRDPDIMPNEYTAESLLREIKKVSKEEEKFLIPTTPSTRDVLKNNLNADLLFVYKSAEPENLKEDIKKLKELIAKDKFILTFTSGLTAKNFFKYVDDEFAEIIKDNYIVAIGPITAKVIEKFGFKPLIPKVYTIEGMLEVIRTLKEREGHHHHHH” as the sequence, how does the “soluble on expression in E. coli” value read?
**A.** soluble

**Q.** With “MGSDKIHHHHHHMDKKSSVSPLPTKALSDDKNSPITVWHIGGEDIRLRIPLLLKLREKGFNVGAVGSEDGNAFADNQIPYFRYTLERGINPWADIYTRSQLSALFRQHQPDIVHSFDTKPAMIAPIVAMKTGIPGRVRTITGMGYVFSSTSTLALALRPIYRHLQRQAAIATGITIFQNPDDREYFCKHKMVLDGRDDLVLGSGIDVEGLMKNSAEPEKLAATRRELGLEGQLVVTMISRLVISKGVREYLQVASIVCQQMKNVTFLLIGSVSSEGGQAIPIQEIHQQAGVVRYLGPRNDIPTLLNLSDVFVLPSYYREGVPRVLLEAATMELPLITTDMPGCKEVVKDGWNGLLVPPRDTKALATAILKLLNSPEQRNLMGKRSRVHVQTNFSLNQVADAYADIYNRVLKLPKTLK” as the sequence, how does the “soluble on expression in E. coli” value read?
**A.** not soluble

**Q.** For “MRSMNTHAVLQFLSGNGIAILQFFHQLILQGKTQDDLTRDYALDRAWVGSVMKLAKELFDPRPSPSRDECISVAKELGLGIEVLKAINPALGRLNKKASMTKDDLRLRLYREARGMTPAEAKAHANTRVVALNDACGATPRKPAVRISKSTDAAGQRHIHASLDDATASAVAEKLHAGARWLTKKTPSLSYSQAMAEIFAIAILDSPALGGRKRREGLILLPADGYTHRGNGMLATTDGSLIPAHKLAEHLLEEYGYAMLYALNDEGVPEPVDLYRTKRYANDKQRLMITADQLTCSHPDCHRLANNSHIHHCTAWERGGETNVKNLVAACATHNRRNDDDPERHKNGYFRRMPHSGCAGFQPADPSLPPRRTRVPFAAYSARVWACDHFGVTV”, which “soluble on expression in E. coli” value is on record?
**A.** not soluble

**Q.** Which “soluble on expression in E. coli” value does the source give for “MAFEMAPADPTLDLNMQLTKLGHGLLSGKYSMPATQKDATTGDPRQEGIPPRMFKNVIAASHAEFSSMRQQDALDFFLHLVGKVERASNTTPDLDPSRSFKFGIEEKILCPSGKVGYNKREDCILSLNIPLHEATNKDELEAFHKQKAGKGLEENDMRSSDEIVRPRVPLEACLANFASSEPIEDYYSSALKGMTTAIKTTGLTSFPDYLVLHMRKFVMEEGWVPKKLDVYIDVPDVIDISHMRSKGLQPGEELLPDGVPEEVMESAQPVANEEIVAQLVSMGFSQLHCQKAAINTSNAGVEEAMNWLLSHMDDPDIDAPISHQTSDIDQSSVDTLLSFGFAEDVARKALKASGGDIEKATDWVFNNPNASVSDMDVSSSNSAQTPAQSGLPDGGGKYKLFGIVSHMGTSVHCGHYVAHILKEGRWVIFNDDKVGISTDPPKDMGYVYFFQRLD” here?
**A.** soluble

**Q.** Which “soluble on expression in E. coli” value does the source give for “MSLSDGAVVRALVLEAPRRLVVRQYRLPRIGDDDALVRVEACGLCGTDHEQYTGELAGGFAFVPGHETVGTIAAIGPRAEQRWGVSAGDRVAVEVFQSCRQCANCRGGEYRRCVRHGLADMYGFIPVDREPGLWGGYAEYQYLAPDSMVLRVAGDLSPEVATLFNPLGAGIRWGVTIPETKPGDVVAVLGPGIRGLCAAAAAKGAGAGFVMVTGLGPRDADRLALAAQFGADLAVDVAIDDPVAALTEQTGGLADVVVDVTAKAPAAFAQAIALARPAGTVVVAGTRGVGSGAPGFSPDVVVFKELRVLGALGVDATAYRAALDLLVSGRYPFASLPRRCVRLEGAEDLLATMAGERDGVPPIHGVLTEGHHHHHH” here?
**A.** not soluble

**Q.** With “MQAGPALMRILPISTIKGKLNEFVDAVSSTQDQITITKNGAPAAVLVGADEWESLQETLYWLAQPGIRESIAEADADIASGRTYGEDEIRAEFGVPRRPHDYKDDDDK” as the sequence, how does the “soluble on expression in E. coli” value read?
**A.** soluble

**Q.** For “MGSDKIHHHHHHMQAFDELLTVEQLSFSYEEDEKPVFQDISFELQKGECVLLLGPSGCGKSSLALCLNGLYPEACDGIQSGHVFLFQKPVTDAETSETITQHAGVVFQDPDQQFCMLTVEDEIAFGLENLQIPKEEMTEKINAVLGKLRITHLKEKMISTLSGGQKQKVALACILAMEPELIILDEPTSLLDPFSAREFVHLMKDLQREKGFSLLVIEHQLDEWAPWIERTIVLDKSGKKALDGLTKNLFQHEAETLKKLGIAIPKVCHLQEKLSMPFTLSKEMLFKEPIPAGHVKKKKAPSGESVLEVSSLSFARGQQAIFKDISFSLREGSLTALVGPNGTGKSTLLSVLASLMKPQSGKILLYDQPLQKYKEKELRKRMGFVFQNPEHQFVTDTVYDELLFGQKANAETEKKAQHLLQRFGLAHLADHHPFAISQGQKRRLSVATMLMHDVKVLLLDEPTFGQDARTAAECMEMIQRIKAEGTAVLMITQGYGASLFVC”, which “soluble on expression in E. coli” value is on record?
**A.** not soluble

**Q.** With “MGSDKIHHHHHHKAFPLRTVFSEGIYYVCAEDLAPAGVGYIHSNGYHYIVYDNHVLFIKEHETIFDFVEKLSPPLFVDGLLFVPIDALKKVMEGYQMYTKGEKVLIYDSLPIVLSAAKEKNGVTITYTGTIVPDMVSVEKSMGRVRINLSPVVVSLPNVSEDIKVELEKNGLSFIVDVGNFYPDVEYSIGDGKLLFRFLLVEGFFGRLEVADGVVFERKIEEFDEGEKTVVNYLIMDPEKVTIKPVVSENGFGTIERLDEMVKRVGGIAGINGNYFDPVTKFPIGLVVIDGKPYSAMFSGRPVFAITEDNEVFIGRVIVDVTLMVKDVLFLVKGINTLGEGEVLVYTKEFSKEIPKKDDKIYFVVKDSKVSQIGYKSHAEDSEYVVSISKKYEEYLSDLKEGDEVYISLQPNIPLRIKQAVEGGPLLIQNGAPIPDAWEEKARYGGGIAYAKAPRTVIATKDGKLWFLVFEGYNHITRGLTYDELVDFLVSRGFEDAMCVDGGSSSVMAVAGSLFGRTENSTAAIPVGIVVWEKKKTEVGK” as the sequence, how does the “soluble on expression in E. coli” value read?
**A.** not soluble

**Q.** Which “soluble on expression in E. coli” value does the source give for “MISIHFEKAHDCHQLFQQLQGYLTKYAELGLKGGIEAGGDETLYVNYENQYVNFYDSFQPLLASIFTDYVISTKEEEWLLDIIENMFYFTDEEEKEQIVAIARSILEGDLEDMPSLSMFTNRREYIYQAFSKHIEENMTFYYDPFLTFRLREYGELLIDCVELAIDEYMMEQEYQSMVETLRQFIHSRIPKRGVIYAVYDERFHFYDEHFRLISTDEIVYDLKEELVFEHGLSVEEMVISPLVSMLPETVKVFTNDEEHGVILTLQAIFQERLKVFPLKDSPHQHREELEHHHHHH” here?
**A.** soluble

**Q.** For “MDHVHKSTTTDEDERNSGRAIDRHNPIIKDGRRSFADDFIKLPTSAEDGEMSNKKLEIYKGRRSITGRRSTGGGGGGGAAALLKLITNDIGLARKSFSCVARPACDLIKTPVGSTRYLLGSDPDSITGSVDQDPAKTVEAEAPAGEDKTLTEKKTTCGDTDQVSCFVVSIMSGINVNKW”, which “soluble on expression in E. coli” value is on record?
**A.** not soluble

Source: the DeepSol protein solubility set
